From the nanobody polyreactivity screen of Harvey et al. (2022)

Assay: yeast display, Sf9 membrane polyspecificity reagent, FACS + sequencing; frameworks hold sequencing errors
In short: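 Genes from sorted yeast were amplified by colony PCR, read by MiSeq 2 × 250 sequencing and filtered on CDR length. These cells carried a synthetic nanobody library in Saccharomyces cerevisiae BJ5465 and were sorted by FACS into low and high (top ~1%) gates on anti-HA and streptavidin fluorescence. Polyreactivity is labelled according to the gate of origin.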

Sequence | polyreactivity (PSR sort gate)
QVQLVESGGGLVQAGGSLRLSCAASGFTFSYSAMGGYSQAPGKERELVAAISRSGSGTSYADSVKGRFTISRDNAKNTVYLQMTSLKPEDTAVYYCAARGGTTRYGNDYWGQGTQVTVSS | high polyreactivity
QVQLVESGGGLVQAGGSLRLSCAASGLTYYYYAKGWYRQAPGKERDFVAAISRSGGTTYYADSVKGRFTISRDNAKNTDYLQMNSLKPEDTAVYYCNAQWWRYRPSQVIFDYWGQGTQVNVSS | high polyreactivity
QVQLVESGGGLVQAGGSLRLSCAASGRTFKGYTMGWYRQAPGKERELVAVITWSGDRTYYADSVKGRFTISRDNAKNTVYLQMNSLKPEDTAVYYCAARGYSLRTRGDYWGQGTQVTVSS | high polyreactivity
QVQLVESGGGLVQAGGSLRLRCAASGSIFYRNAMGWYRQAPGKERELVASITSGGRTNYADSLKGRFTISRDNAKNTVYLQMNSLKPEDTAVYYCAVQYHAASDHSYWGQGTQVTVSS | low polyreactivity
QVQLVESGGGLVQAGGSLRLSCAASGSTIEDNTMGWYRQAPGKERELVAAISNSGGSTYYADSVKGRFTISRDYAKNTVYLQMISLKPEDTAVYYCAADFYDPFDYWGQGTQVTVSS | low polyreactivity
QVQLVESGGGLVQAGGSLRLSCAASGFTLDWYVMGWYRQAPGKEREFVASIRYSGGSTYYADSVKGRFTISRDNAKNTVYLQMNRLKTEDTAVYYCAARTVTLSYLYYYWGQGTQVTVSS | high polyreactivity
QVQLVESGGGLVQAGGSLRLSCAASGSTFVYNVMGWYRQAPGKERELVAAIRWRGGSTYADSVKGRFTISRDNAKNSVYLQMTSLKPQDTAVYYSNTGHEEDEYDYWGQGTQVTVSS | low polyreactivity
QVQLVESGGGLVQAGGSLRLSCAASGRTFYSYAMGWYRQAPGTEREFVAAINWSGTSTYADSVKGRFTISRDNAKNTVYLQMNSLKPEDTAVYYCAKTYRTLVRYWGQPFGYWGQGTQVTVSS | high polyreactivity
QVHLVESGGGLVQAGGSLRLSCAASGITFYRNAMGWYRQPRGKEMELVAAITWNGGRTYYADSVKGRFTISRDNAKNTVYLQMNSLKPEDTAVYYCAADSGSRNLASYRYYSWGQGTQVTVSS | low polyreactivity
QVQLVESGGGLVQAGGSLRLSCAASGSIFRVYGMGWYRQAPGKERELVAAITWSGGSTYYADSVKGRFTISRDNAKNTVYLQMNSLKPEDTAVYYCNADKFRRYGYWGQGTQVTVSS | high polyreactivity
QVQLVESGGGLVQAGGSLRLSCAASGRTLVVYAMGWYRQAPGKERELVADINWSGGRTYYADSVKGRFTISRDNAKNTVYLQMNSLKPEDTAVYYWAADLSWRQYYREYDYWGQGTQVSVSS | high polyreactivity
QVQLVESGGGLVQAGGRLLLSCAASGFIFYSNAMGWYRQAPGKERELVAAISRSGGSTYYADSVKGRFTISRDNAMNTVFLQMNSLKPEDTAVYYCNADYVYRRYGYWGQGTQVNVSS | high polyreactivity
QVQLVESGVRLGQAGGSLRLSCAASGSIFLRYAMGWFRPAPGKERELVATISQRGSTYYADSVKGRFTISRDNAKNTVYLKKNSLKPEDTAVYYCNAVGRARTLGSNTYGYWGQGTQVTVSS | high polyreactivity
QVQLVESGVGLVQAGGSLRLSCAASGYTFLYYAMGWYRQAPGTERELVAAISSGGRTYYADSVKGRFTISRDNAKNTVYLQMNSLKPEVTAVYYCNTGALIHNGYYGLDYWGQGTQVTVSS | high polyreactivity
QVQLVESGGGLVQAGGSLRLSCAASGSISGYYAMGWYRQAPGKERELVASIRYTGARTYYADSVKGRFTISRDNAKNTVYLQMNSLKPEDTAVYYGAADVKRDRVWGGDYWGQGTQVTVSS | low polyreactivity
QGQLVESGGGLVQEGGSLRLSCAASGRIFQNYAMGWYRQAPGKERELVATIDIGGSTKYADSVKGRFTISRDNAKNTVYLQMNSLKPEDTAVYYCNVPAFFYGYYRFDYWGQGTQVTVSS | high polyreactivity

Sequence | polyreactivity (PSR sort gate)
QVQLVESGGGLVQAGGSLRLSCAASGRIKGKNAMGWYRQAPGKERELVAAISSTGSTYYADSVKGRFSISRDNAKNTVYLQMNSLKPEDTAVYYCAATVEWWPGGWFDYWGQGTQVTVSS | high polyreactivity
QVQLVESGGGLVQAGGSLRLSCAASGSTFLDYAMGWYRQAPGKDRELVAAISTDDSSTYYADSVKGRFTISRDNAKNTVYLQMNSLKPEDTAVYYCAADDRDWVNFDYWGQGTQVTVSS | low polyreactivity
QVQLVESGVGLVQAGGSLRLSCAASGFTFRRYAMGWYRQAPGKERELVAAISIRGGRTYYADSVKGRFTISRDNAKNTVYLQMNSLKPEDTAVYYCAADGVYALDVESDSWGQGTQVTVSS | high polyreactivity
QVQLVESGGGLVQAGGSLRLSCAASGRTFNRNAMGWYRPAPGKERELVAAISRGGGGTFYADSVKGRFTISRDNAKNTVYLQMNSLKPEDTAVYYCAVWQDHYDWGQGTQVTVSS | low polyreactivity
QVQLVESGGGLVQAGGSLRLSCAASGRNISYNAMGWSRQAPGKERELVAAISWGGGSTYYADSVKGRFTISRDNAKNTVYLQMNSLKPEDTAVYYCAKGWYRIKRNDYWGQGTQVTVSS | low polyreactivity
QVQLVESGGGLVQAGGSLRLSCAASGRIFTYNPMGWYRQAPGKERELVAVISRRGGSTYYADSVKGRFTISRDNAKNTVYLQMNSLKPEDTAVYYCAADLPSYPYEYWGQGTQVTVSS | low polyreactivity
QVQLVESGGGLVQAGGSLSLICAASGFTFGSNDMGWYRQAPGKERELVAAIDGSGDTYYADSVKGRFTISRDNAKNTVYLQMNSLKPEDTAVYYCARDDNPIYSGVTYDYWGQGTQVTVSS | low polyreactivity
QVQLVESGGGLVQAGGSLRLSCAASGRIFVSYAMGWYRQAPGKERELVAGISSSGGSTYYADSVKGRFTISRDNAKNTVYLQMNSLKPEDTAVYYCNTDQRSRMDYWGQGTQVTVSS | low polyreactivity
QVQLVESAGGLVQAGGSLRLSCAASGGIFSRYSMGWYRQAPGKERELVAAITRSGGSTYYADSVKGRFTISRDNAKNTVYLQLNSLKPEDTAVYYCSARRRGGSKYGYWGQGTQVTVSS | high polyreactivity
QVQLVESGGGLVQARGSLRLSCAASGSIFPPYAMGWYRQAPGKERELVAAINSGGSTNYADSVKGRFTISRDNAKNTVYLQMNSLKAEDTAVYYCAAEVVYPVYEYDYWGQGTQVTVSS | low polyreactivity
QVQLVESGGGLVLAGGSLRLSCAASGRPFYGNTMGWYRQAPGKERELVAAISYSGGTTSYADSVKGRFTISRDNAKNTVYLQMNSLKPEDTAVYYCAKRYSYWWTSGYDYWGQGTQVTVSS | high polyreactivity
LVHLQESGGGMVQAGGSLRLSGAAIGYISWADYMGWYRQAPGKERELVAGIGYGSTTYYADSVKGRFTISRDNAKNTAYLQMNSLKPEDTGVYYCAVGLDRDTAYKYWGQGTQVTVSS | low polyreactivity
QVQLVESGGGLVQAGGRLRLSCAASGSSFVAYTMGWYRQAPGKERELVAAISRGGSTNYADSVKGRFTISRDNAKNTVYLQMNSLKPEDTAVYYCAAKVWDGQLLYYWGQGTQVTVSS | low polyreactivity
QVQLVESGGGLVQAGGSLRLSCAASGSIYVNKAMGWYRQAPGKERELVAAISRSGTRTYYADSVKGRFTISRDNAKNTVYLQMNSLKPEDTAVYYCAVDYYYRMDYWGQGTQVTVSS | high polyreactivity
QVQLVESAGGLVQAGGSLRLSCAASGSIFLSNAMGWYRQAPGTERALVADIDWTGGDTYYADSVKGRFTISRDNAKNTVYLQMNSLKPEDTAFYYCAADYGYRNLLTEYGYWGQGTQVTVSS | low polyreactivity
QVQLVDSAGGLVQAGGSLRLSCDDSGRTFWYYTMGWYRQAPGKEREFLAAIRGSGTSTYYADSVKARYTISRDNAKNTVYFQMNSLKPEDTADYYCAAESPVYHLVTYDYWGQGTQVTVSS | high polyreactivity
